{"source": "the supplement of paper PMC9112550", "about": "“Optimization of the antimicrobial peptide Bac7 by deep mutational scanning” (BMC Biology, 2022);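 further: peptides expressed intracellularly from a pBAD plasmid library in pooled LB shake-flask culture, induced with 0.3% L-arabinose, DNA abundance read by NGS, three biological replicates, DESeq2 with apeglm shrinkage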"}
{"tested_on": "Escherichia coli TOP10", "test": "shrunken log2 fold change of peptide-encoding DNA abundance (4.5 h post-induction vs induction); higher = less antimicrobial activity (less host growth inhibition)", "settings": "time post-induction: 4.5 h; library: site-saturation at positions 5, 18, 19, 20"}
{"sequence": "RRIRARPPRLPRPRPRPPWVPRP", "shrunken log2 fold change": 0.254}
{"sequence": "RRIRKRPPRLPRPRPRPVWFPRP", "shrunken log2 fold change": 0.142}
{"sequence": "RRIRERPPRLPRPRPRPFWHPRP", "shrunken log2 fold change": -0.0333}
{"sequence": "RRIRCRPPRLPRPRPRPDGQPRP", "shrunken log2 fold change": 0.101}
{"sequence": "RRIRARPPRLPRPRPRPRQNPRP", "shrunken log2 fold change": 0.723}
{"sequence": "RRIRVRPPRLPRPRPRPKLQPRP", "shrunken log2 fold change": 0.32}
{"sequence": "RRIRTRPPRLPRPRPRPPQGPRP", "shrunken log2 fold change": 0.235}
{"sequence": "RRIRQRPPRLPRPRPRPNHLPRP", "shrunken log2 fold change": -1.03}
{"sequence": "RRIRFRPPRLPRPRPRPDNAPRP", "shrunken log2 fold change": -0.167}
{"sequence": "RRIRWRPPRLPRPRPRPKMMPRP", "shrunken log2 fold change": -0.106}
{"sequence": "RRIRRRPPRLPRPRPRPFPWPRP", "shrunken log2 fold change": -0.0263}
{"sequence": "RRIRHRPPRLPRPRPRPFWAPRP", "shrunken log2 fold change": 0.245}
{"sequence": "RRIRVRPPRLPRPRPRPAKRPRP", "shrunken log2 fold change": 0.615}
{"sequence": "RRIRHRPPRLPRPRPRPARQPRP", "shrunken log2 fold change": 0.14}
{"sequence": "RRIRFRPPRLPRPRPRPCQQPRP", "shrunken log2 fold change": 0.0307}
{"sequence": "RRIRMRPPRLPRPRPRPQGRPRP", "shrunken log2 fold change": 0.113}
{"sequence": "RRIRYRPPRLPRPRPRPFGEPRP", "shrunken log2 fold change": -0.00973}
{"sequence": "RRIRARPPRLPRPRPRPHWSPRP", "shrunken log2 fold change": -0.0356}
{"sequence": "RRIRPRPPRLPRPRPRPYIVPRP", "shrunken log2 fold change": -0.15}
{"sequence": "RRIRFRPPRLPRPRPRPPYTPRP", "shrunken log2 fold change": -0.419}
{"sequence": "RRIRERPPRLPRPRPRPFMNPRP", "shrunken log2 fold change": -0.00101}
{"sequence": "RRIRNRPPRLPRPRPRPEHHPRP", "shrunken log2 fold change": -0.114}
{"sequence": "RRIRLRPPRLPRPRPRPGKTPRP", "shrunken log2 fold change": 0.086}
{"sequence": "RRIRARPPRLPRPRPRPQTDPRP", "shrunken log2 fold change": 0.275}
{"sequence": "RRIRFRPPRLPRPRPRPHPVPRP", "shrunken log2 fold change": -0.141}
{"sequence": "RRIRFRPPRLPRPRPRPRRVPRP", "shrunken log2 fold change": 0.258}
{"sequence": "RRIRARPPRLPRPRPRPHRQPRP", "shrunken log2 fold change": 0.29}
{"sequence": "RRIRERPPRLPRPRPRPGVFPRP", "shrunken log2 fold change": 0.248}
{"sequence": "RRIRARPPRLPRPRPRPICSPRP", "shrunken log2 fold change": 0.251}
{"sequence": "RRIRWRPPRLPRPRPRPIIMPRP", "shrunken log2 fold change": -0.241}
{"sequence": "RRIRQRPPRLPRPRPRPAVRPRP", "shrunken log2 fold change": -0.0154}
{"sequence": "RRIRLRPPRLPRPRPRPEQHPRP", "shrunken log2 fold change": 0.243}
{"sequence": "RRIRWRPPRLPRPRPRPHGLPRP", "shrunken log2 fold change": 0.0735}
{"sequence": "RRIRNRPPRLPRPRPRPYNFPRP", "shrunken log2 fold change": -0.176}
{"sequence": "RRIRRRPPRLPRPRPRPHALPRP", "shrunken log2 fold change": 0.0116}
{"sequence": "RRIRHRPPRLPRPRPRPFGEPRP", "shrunken log2 fold change": -0.0377}
{"sequence": "RRIRPRPPRLPRPRPRPLWEPRP", "shrunken log2 fold change": 0.0604}
{"sequence": "RRIRARPPRLPRPRPRPESPPRP", "shrunken log2 fold change": 0.145}
{"sequence": "RRIRIRPPRLPRPRPRPGIEPRP", "shrunken log2 fold change": -0.154}
{"sequence": "RRIRFRPPRLPRPRPRPGTSPRP", "shrunken log2 fold change": -0.0716}
{"sequence": "RRIRMRPPRLPRPRPRPEQRPRP", "shrunken log2 fold change": 2.55}
{"sequence": "RRIRGRPPRLPRPRPRPTLFPRP", "shrunken log2 fold change": 0.824}
{"sequence": "RRIRTRPPRLPRPRPRPKHWPRP", "shrunken log2 fold change": 0.441}
{"sequence": "RRIRCRPPRLPRPRPRPEINPRP", "shrunken log2 fold change": 0.122}
{"sequence": "RRIRTRPPRLPRPRPRPMKSPRP", "shrunken log2 fold change": -0.203}
{"sequence": "RRIRLRPPRLPRPRPRPYMDPRP", "shrunken log2 fold change": -0.0681}
{"sequence": "RRIRPRPPRLPRPRPRPERHPRP", "shrunken log2 fold change": 0.00192}
{"sequence": "RRIRARPPRLPRPRPRPCNEPRP", "shrunken log2 fold change": -0.0554}
{"sequence": "RRIRDRPPRLPRPRPRPDWDPRP", "shrunken log2 fold change": 4.78}
{"sequence": "RRIRYRPPRLPRPRPRPGQRPRP", "shrunken log2 fold change": 0.212}
{"sequence": "RRIRRRPPRLPRPRPRPLQLPRP", "shrunken log2 fold change": -0.101}
{"sequence": "RRIRMRPPRLPRPRPRPQNTPRP", "shrunken log2 fold change": 0.0152}
{"sequence": "RRIRHRPPRLPRPRPRPQESPRP", "shrunken log2 fold change": 0.00355}
{"sequence": "RRIRHRPPRLPRPRPRPWVPPRP", "shrunken log2 fold change": -0.408}
{"sequence": "RRIRGRPPRLPRPRPRPLMGPRP", "shrunken log2 fold change": 0.373}
{"sequence": "RRIRYRPPRLPRPRPRPNNSPRP", "shrunken log2 fold change": -0.52}
{"sequence": "RRIRLRPPRLPRPRPRPPRIPRP", "shrunken log2 fold change": 0.0531}
{"sequence": "RRIRHRPPRLPRPRPRPKNFPRP", "shrunken log2 fold change": -0.0655}
{"sequence": "RRIRKRPPRLPRPRPRPYNNPRP", "shrunken log2 fold change": -0.286}
{"sequence": "RRIRWRPPRLPRPRPRPAHKPRP", "shrunken log2 fold change": 0.344}
{"sequence": "RRIRGRPPRLPRPRPRPMTVPRP", "shrunken log2 fold change": 0.0506}
{"sequence": "RRIRIRPPRLPRPRPRPCRFPRP", "shrunken log2 fold change": -0.0104}
{"sequence": "RRIRCRPPRLPRPRPRPWMFPRP", "shrunken log2 fold change": -0.453}
{"sequence": "RRIRERPPRLPRPRPRPMVCPRP", "shrunken log2 fold change": -0.0478}
{"sequence": "RRIRARPPRLPRPRPRPPAFPRP", "shrunken log2 fold change": 1.04}
{"sequence": "RRIRRRPPRLPRPRPRPFCVPRP", "shrunken log2 fold change": 1.05}
{"sequence": "RRIRERPPRLPRPRPRPALVPRP", "shrunken log2 fold change": 0.193}
{"sequence": "RRIRLRPPRLPRPRPRPWQSPRP", "shrunken log2 fold change": 0.0341}
{"sequence": "RRIRRRPPRLPRPRPRPLYSPRP", "shrunken log2 fold change": -0.0185}
{"sequence": "RRIRWRPPRLPRPRPRPKGEPRP", "shrunken log2 fold change": 0.74}
{"sequence": "RRIRYRPPRLPRPRPRPMKDPRP", "shrunken log2 fold change": -0.317}
{"sequence": "RRIRVRPPRLPRPRPRPSEDPRP", "shrunken log2 fold change": 0.376}
{"sequence": "RRIRNRPPRLPRPRPRPTISPRP", "shrunken log2 fold change": -0.969}
{"sequence": "RRIRRRPPRLPRPRPRPLCWPRP", "shrunken log2 fold change": 0.623}
{"sequence": "RRIRRRPPRLPRPRPRPAVNPRP", "shrunken log2 fold change": 0.125}
